Results on seven molecules are retold here after patent publication US20230080842A1 (WUHAN YZY BIOPHARMA, published 2023).

This experiment concerns the target T1, Human SLAMF7 (human, UniProt Q9NQ25 23-226).
T1 construct: also called SLAMF7 antigen; not shown: His tag
Description: ELISA, plate coated with His-tagged antigen.

B1: Y216-A1 (bispecific antibody, human IgG1, kappa)
light: DIQMTQSPSSLSASVGDRVTITCKASQDVGIAVAWYQQKPGKVPKLLIYWASTRHTGVPDRFSGSGSGTDFTLTISSLQPEDVATYYCQQYSSYPYTFGQGTKVEIKRTVAAPSVFIFPPSDEQLKSGTASVVCLLNNFYPREAKVQWKVDNALQSGNSQESVTEQDSKDSTYSLSSTLTLSKADYEKHKVYACEVTHQGLSSPVTKSFNRGEC
heavy: EVQLVESGGGLVQPGGSLRLSCAASGFDFSRYWMSWVRQAPGKGLEWIGEINPDSSTINYAPSLKDKFIISRDNAKNSLYLQMNSLRAEDTAVYYCARPDGNYWYFDVWGQGTLVTVSSASTKGPSVFPLAPSSKSTSGGTAALGCLVKDYFPEPVTVSWNSGALTSGVHTFPAVLQSSGLYSLSSVVTVPSSSLGTQTYICNVNHKPSNTKVDKKVEPKSCDKTHTCPPCPAPPVAGPSVFLFPPKPKDTLMISRTPEVTCVVVDVSHEAPEVQFNWYVDGVEVHNAKTKPREEQFNSTFRVVSVLTVVHQDWLNGKEYKCKVSNKGLPAPIEKTISKTKGQPREPQVYTLPPSRDELTKNQVSLTCLVKGFYPSDIAVEWESNGQPENNYKTTPPVLDSDGSFFLYSKLTVDKSRWQQGNVFSCSVMHEALHNHYTQKSLSLSPGAGGGGSGGGGSGGGGSGEVQLVESGGGVVRPGGSLRLSCAASGFTFDDYGMSWVRQAPGKGLEWVSGINWNGGSTGYADSVKGRFTISRDNAKNSLYLQMNSLRAEDTAVYYCARGRSLLFDYWGQGTLVTVSRGGGGSGGGGSGGGGSSELTQDPAVSVALGQTVRITCQGDSLRSYYASWYQQKPGQAPVLVIYGKNNRPSGIPDRFSGSSSGNTASLTITGAQAEDEADYYCNSRDSSGNHVVFGGGTKLTVL
notes: structure 2 IgG(H)-ScFv, A series; IgG Elotuzumab (anti-SLAMF7), scFv NM3E2 (anti-CD16)
For the molecule B1, a half-maximal response (EC50) required 0.715 nM.

B2: Y216-B1 (bispecific antibody, human IgG1, kappa)
light: B1 light
heavy: EVQLVESGGGLVQPGGSLRLSCAASGFDFSRYWMSWVRQAPGKGLEWIGEINPDSSTINYAPSLKDKFIISRDNAKNSLYLQMNSLRAEDTAVYYCARPDGNYWYFDVWGQGTLVTVSSASTKGPSVFPLAPSSKSTSGGTAALGCLVKDYFPEPVTVSWNSGALTSGVHTFPAVLQSSGLYSLSSVVTVPSSSLGTQTYICNVNHKPSNTKVDKKVEPKSCDKTHTCPPCPAPPVAGPSVFLFPPKPKDTLMISRTPEVTCVVVDVSHEAPEVQFNWYVDGVEVHNAKTKPREEQFNSTFRVVSVLTVVHQDWLNGKEYKCKVSNKGLPAPIEKTISKTKGQPREPQVYTLPPSRDELTKNQVSLTCLVKGFYPSDIAVEWESNGQPENNYKTTPPVLDSDGSFFLYSKLTVDKSRWQQGNVFSCSVMHEALHNHYTQKSLSLSPGAGGGGSGGGGSGGGGSGSELTQDPAVSVALGQTVRITCQGDSLRSYYASWYQQKPGQAPVLVIYGKNNRPSGIPDRFSGSSSGNTASLTITGAQAEDEADYYCNSRDSSGNHVVFGGGTKLTVLGGGGSGGGGSGGGGSEVQLVESGGGVVRPGGSLRLSCAASGFTFDDYGMSWVRQAPGKGLEWVSGINWNGGSTGYADSVKGRFTISRDNAKNSLYLQMNSLRAEDTAVYYCARGRSLLFDYWGQGTLVTVSR
notes: structure 2 IgG(H)-ScFv, B series; IgG Elotuzumab (anti-SLAMF7), scFv NM3E2 (anti-CD16)
Regarding B2, the concentration giving a half-maximal response (EC50) (in general, the concentration that produces a half-maximal response) is 0.499 nM.

B3: Y116-B2 (bispecific antibody)
light: DIQMTQSPSSLSASVGDRVTITCKASQDVGIAVAWYQQKPGKVPKLLIYWASTRHTGVPDRFSGSGSGTDFTLTISSLQPEDVATYYCQQYSSYPYTFGQGTKVEIKRTVAAPSVFIFPPSDEQLKSGTASVVCLLNNFYPREAKVQWKVDNALQSGNSQESVTEQDSKDSTYSLSSTLTLSKADYEKHKVYACEVTHQGLSSPVTKSFNRGECGGGGSEAAAKGGGGSEVQLVESGGGVVRPGGSLRLSCAASGFTFDDYGMSWVRQAPGKGLEWVSGINWNGGSTGYADSVKGRFTISRDNAKNSLYLQMNSLRAEDTAVYYCARGRSLLFDYWGQGTLVTVSR
heavy: EVQLVESGGGLVQPGGSLRLSCAASGFDFSRYWMSWVRQAPGKGLEWIGEINPDSSTINYAPSLKDKFIISRDNAKNSLYLQMNSLRAEDTAVYYCARPDGNYWYFDVWGQGTLVTVSSASTKGPSVFPLAPSSKSTSGGTAALGCLVKDYFPEPVTVSWNSGALTSGVHTFPAVLQSSGLYSLSSVVTVPSSSLGTQTYICNVNHKPSNTKVDKKVEPKSCGGGGSEAAAKGGGGSSELTQDPAVSVALGQTVRITCQGDSLRSYYASWYQQKPGQAPVLVIYGKNNRPSGIPDRFSGSSSGNTASLTITGAQAEDEADYYCNSRDSSGNHVVFGGGTKLTVLGYPGGGGSDKTHTCPPCPAPPVAGPSVFLFPPKPKDTLMISRTPEVTCVVVDVSHEAPEVQFNWYVDGVEVHNAKTKPREEQFNSTFRVVSVLTVVHQDWLNGKEYKCKVSNKGLPAPIEKTISKTKGQPREPQVYTLPPSRDELTKNQVSLTCLVKGFYPSDIAVEWESNGQPENNYKTTPPVLDSDGSFFLYSKLTVDKSRWQQGNVFSCSVMHEALHNHYTQKSLSLSPGK
The molecule B3 showed an EC50 of 0.648 nM.

B4: Y416-B1 (bispecific antibody, human IgG1, kappa)
light: EVQLVESGGGLVQPGGSLRLSCAASGFDFSRYWMSWVRQAPGKGLEWIGEINPDSSTINYAPSLKDKFIISRDNAKNSLYLQMNSLRAEDTAVYYCARPDGNYWYFDVWGQGTLVTVSSGGGGSGGGGSGGGGSSELTQDPAVSVALGQTVRITCQGDSLRSYYASWYQQKPGQAPVLVIYGKNNRPSGIPDRFSGSSSGNTASLTITGAQAEDEADYYCNSRDSSGNHVVFGGGTKLTVLRTVAAPSVFIFPPSDEQLKSGTASVVCLLNNFYPREAKVQWKVDNALQSGNSQESVTEQDSKDSTYSLSSTLTLSKADYEKHKVYACEVTHQGLSSPVTKSFNRGEC
heavy: DIQMTQSPSSLSASVGDRVTITCKASQDVGIAVAWYQQKPGKVPKLLIYWASTRHTGVPDRFSGSGSGTDFTLTISSLQPEDVATYYCQQYSSYPYTFGQGTKVEIKGGGGSGGGGSGGGGSEVQLVESGGGVVRPGGSLRLSCAASGFTFDDYGMSWVRQAPGKGLEWVSGINWNGGSTGYADSVKGRFTISRDNAKNSLYLQMNSLRAEDTAVYYCARGRSLLFDYWGQGTLVTVSRASTKGPSVFPLAPSSKSTSGGTAALGCLVKDYFPEPVTVSWNSGALTSGVHTFPAVLQSSGLYSLSSVVTVPSSSLGTQTYICNVNHKPSNTKVDKKVEPKSCDKTHTCPPCPAPPVAGPSVFLFPPKPKDTLMISRTPEVTCVVVDVSHEAPEVQFNWYVDGVEVHNAKTKPREEQFNSTFRVVSVLTVVHQDWLNGKEYKCKVSNKGLPAPIEKTISKTKGQPREPQVYTLPPSRDELTKNQVSLTCLVKGFYPSDIAVEWESNGQPENNYKTTPPVLDSDGSFFLYSKLTVDKSRWQQGNVFSCSVMHEALHNHYTQKSLSLSPGK
As to B4, the EC50 was found to be 5.59 nM.

B5: Y116-B1 (bispecific antibody)
light: DIQMTQSPSSLSASVGDRVTITCKASQDVGIAVAWYQQKPGKVPKLLIYWASTRHTGVPDRFSGSGSGTDFTLTISSLQPEDVATYYCQQYSSYPYTFGQGTKVEIKRTVAAPSVFIFPPSDEQLKSGTASVVCLLNNFYPREAKVQWKVDNALQSGNSQESVTEQDSKDSTYSLSSTLTLSKADYEKHKVYACEVTHQGLSSPVTKSFNRGECGAAAGGGGSGGGGSGGGGSEVQLVESGGGVVRPGGSLRLSCAASGFTFDDYGMSWVRQAPGKGLEWVSGINWNGGSTGYADSVKGRFTISRDNAKNSLYLQMNSLRAEDTAVYYCARGRSLLFDYWGQGTLVTVSR
heavy: EVQLVESGGGLVQPGGSLRLSCAASGFDFSRYWMSWVRQAPGKGLEWIGEINPDSSTINYAPSLKDKFIISRDNAKNSLYLQMNSLRAEDTAVYYCARPDGNYWYFDVWGQGTLVTVSSASTKGPSVFPLAPSSKSTSGGTAALGCLVKDYFPEPVTVSWNSGALTSGVHTFPAVLQSSGLYSLSSVVTVPSSSLGTQTYICNVNHKPSNTKVDKKVEPKSCGAAAGGGGSGGGGSSELTQDPAVSVALGQTVRITCQGDSLRSYYASWYQQKPGQAPVLVIYGKNNRPSGIPDRFSGSSSGNTASLTITGAQAEDEADYYCNSRDSSGNHVVFGGGTKLTVLGYPGGGGSDKTHTCPPCPAPPVAGPSVFLFPPKPKDTLMISRTPEVTCVVVDVSHEAPEVQFNWYVDGVEVHNAKTKPREEQFNSTFRVVSVLTVVHQDWLNGKEYKCKVSNKGLPAPIEKTISKTKGQPREPQVYTLPPSRDELTKNQVSLTCLVKGFYPSDIAVEWESNGQPENNYKTTPPVLDSDGSFFLYSKLTVDKSRWQQGNVFSCSVMHEALHNHYTQKSLSLSPGK
B5: the response was half-maximal at 0.636 nM (EC50).

B6: ElotuzumAb (antibody, human IgG1, kappa, V domains shown)
VH: EVQLVESGGGLVQPGGSLRLSCAASGFDFSRYWMSWVRQAPGKGLEWIGEINPDSSTINYAPSLKDKFIISRDNAKNSLYLQMNSLRAEDTAVYYCARPDGNYWYFDVWGQGTLVTVSS
VL: DIQMTQSPSSLSASVGDRVTITCKASQDVGIAVAWYQQKPGKVPKLLIYWASTRHTGVPDRFSGSGSGTDFTLTISSLQPEDVATYYCQQYSSYPYTFGQGTKVEIKR
notes: anti-SLAMF7 monoclonal antibody, human IgG1 constant domains, kappa
For B6, the EC50 was found to be 0.628 nM.

B7: Y316-A1 (bispecific antibody)
chain: EVQLVESGGGLVQPGGSLRLSCAASGFDFSRYWMSWVRQAPGKGLEWIGEINPDSSTINYAPSLKDKFIISRDNAKNSLYLQMNSLRAEDTAVYYCARPDGNYWYFDVWGQGTLVTVSSGGGGSGGGGSGGGGSDIQMTQSPSSLSASVGDRVTITCKASQDVGIAVAWYQQKPGKVPKLLIYWASTRHTGVPDRFSGSGSGTDFTLTISSLQPEDVATYYCQQYSSYPYTFGQGTKVEIKGGGGSASEVQLVESGGGVVRPGGSLRLSCAASGFTFDDYGMSWVRQAPGKGLEWVSGINWNGGSTGYADSVKGRFTISRDNAKNSLYLQMNSLRAEDTAVYYCARGRSLLFDYWGQGTLVTVSRGGGGSGGGGSGGGGSSELTQDPAVSVALGQTVRITCQGDSLRSYYASWYQQKPGQAPVLVIYGKNNRPSGIPDRFSGSSSGNTASLTITGAQAEDEADYYCNSRDSSGNHVVFGGGTKLTVLDKTHTCPPCPAPPVAGPSVFLFPPKPKDTLMISRTPEVTCVVVDVSHEAPEVQFNWYVDGVEVHNAKTKPREEQFNSTFRVVSVLTVVHQDWLNGKEYKCKVSNKGLPAPIEKTISKTKGQPREPQVYTLPPSRDELTKNQVSLTCLVKGFYPSDIAVEWESNGQPENNYKTTPPVLDSDGSFFLYSKLTVDKSRWQQGNVFSCSVMHEALHNHYTQKSLSLSPGK
notes: structure 3 Tandem-ScFv-Fc, A series, two identical fusion peptides; scFv Elotuzumab (anti-SLAMF7), scFv NM3E2 (anti-CD16)
As to B7, the EC50 came out at 9.18 nM.
